Measured values taken from the supplement of paper PMC9170038.

How the values were obtained:
[1] = system: MS2 coat protein; assay: apparent KD of MS2 coat protein, switch ON state; designed switch direction (-1 OFF switch, 1 ON switch): 1; higher = weaker reporter binding; details: FMN input: 0 or 200 uM; Eterna round: R93 (includes R88 designs)
Summary of the method: (§1)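 Binding of SNAP-549-labelled MS2 coat protein was measured on designed RNA switches transcribed on-chip from Illumina sequencing clusters. The protein rose in twofold steps from 0.7 or 1.5 nM to 3 µM, with 0.8–1.5 h per step early on and 10–20 min per step later, in 100 mM Tris-HCl pH 7.5, 80 mM KCl, 4 mM MgCl2, without or with constant ligand. Each design's apparent KD is the median of fits to its normalised cluster binding curves.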

[2] = system: MS2 coat protein; assay: apparent KD of MS2 coat protein, switch OFF state (with FMN for OFF switches, without FMN for ON switches); designed switch direction (-1 OFF switch, 1 ON switch): 1; higher = weaker reporter binding; details: FMN input: 0 or 200 uM; Eterna round: R93 (includes R88 designs)
Summary of the method: as §1

Row | Sequence | apparent KD of MS2 coat protein [1] | apparent KD of MS2 coat protein [2]
1 | GGGAGGAAGAGAGAGGAUAUCCAAAGGAAAACAUGAGGAUCACCCAUGUAAAAGGUAGGAAAUUGGGAGAAGGCUCAAAAGAGGA [salish99-ss2-039] | 0.0313 µM | 0.0303 µM
2 | GAAAAACAUGAGGAUCACCCAUGUGAGAAUAUGGAAGGAUAUACAAAGACGAGAGUCAAAGUAGAAGGUCUAAAAG [Mat - Same State 1 - Eli mod - D21] | 0.0221 µM | 0.0317 µM
3 | AAACCACAUGAGGAUCACCCAUGUGUAAAAAAUACAGGAUAUGGAAACACGAAAGUGAAACCAGAAGGGUGAAAAA [77%, Mat - Mod of Eli, 30] | 0.019 µM | 0.0243 µM
4 | CGCGAACAUGAGGAUCACCCAUGUAAAUCGCAUGUAGGAUAUGGGAAACACAUUAAGAUCCCAGAAGGGCGGAAAA [Anquve] | 0.0413 µM | 0.0312 µM
5 | AAAAAACAUGAGGAUCACCCAUGUGCAAAAUUCGCAGGAUAUCCCUUUUUUAAAUGGGAGGGAGAAGGGUGAAAAA [Nob's Hobby 17 - Jieux - Same State 1] | 0.0237 µM | 0.076 µM
6 | AUAUGACAUGAGGAUCACCCAUGUAUUCGAGCAUGAGGAUAUAUGACUAGUCAUAGGAGGAUAGAAGGCAUGGUUG [JR_SS001_Sub1217] | 0.0762 µM | 0.169 µM
7 | AAAAGACAUGAGGAUCACCCAUGUCGAAAGACAUGAGGAUAUGUACAGACUUCGGUCUGUACAGAAGGCAUGUAAA [SS1 - 1068] | 0.0167 µM | 0.0503 µM
8 | AAACAGCACAGGUAGGAUAUGUAGGGUGGUACAUGAGGAUCACCCAUGUAUCCACCCUUCGAAAGGCAGAAGGGCCUGCCGCUGC [Cealaes] | 0.0154 µM | 0.0166 µM
9 | GAAAAACAUGAGGAUCACCCAUGUAAGAUAAACACAGGAUAUGCGAAAAGAAAGAAAGAAGCAGAAGGGUGAAGAA [Mat - Same State 1 - Tesla mod - 40] | 0.0123 µM | 0.0337 µM
10 | GAAAAACAUGAGGAUCACCCAUGUAGAAAUAUGGGAGGAUAUUCAAAGACGAAAGUCAAAGAAGAAGGCCUAAAAG [Mat - Same State 1 - Eli mod - 36] | 0.0291 µM | 0.113 µM
11 | AAAUAAAGGACUGAGGAUAUACCACAUGAAACAUGAGGAUCACCCAUGUUGAAAAACAAAGGGUGGUAGAAGGCAGUCCACAAAC [Same State 2.5c ( so lets mod hyphema)] | 0.0107 µM | 0.0141 µM
12 | AGGAAACAUGAGGAUCACCCAUGUAAAAAUAUGGGAGGAUAUACAAAGACGAAAGUAAGAGUAGAAGGCCUAAAAG [Garnet 16] | 0.0313 µM | 0.15 µM
13 | AAAAAAAAUGUGUAGGAUAUCAGUAAAAAUACAUGAGGAUCACCCAUGUUCAAAAAAAAAAAAACUGAGAAGGACACGGGAAGUCC [Design 2] | 0.0205 µM | 0.0185 µM
14 | AAAAUACAUGAGGAUCACCCAUGUGAAAAUAUGGAAGGAUAUACGAAAAAUAAAUAAAACGUAGAAGGUCUAAAAA [SS! 1 MT 3] | 0.0238 µM | 0.0384 µM
15 | AAAAAACAUGAGGAUCACCCAUGUAAAAAAAUGGGAGGAUAUACAAAGACGAAAGUCAAAGUAGAAGGCCUGAAAG [same state 3] | 0.0217 µM | 0.0584 µM
16 | AAACCACAUGAGGAUCACCCAUGUCAAGAGAGACUAGGAUAUCUGAAUUAAUUAAAUUAAGGAGAAGGAGUGAAAA [71%, Same state of confusion2, 3] | 0.0528 µM | 0.179 µM
17 | AGGAAACAUGAGGAUCACCCAUGUAAAAGGUGGGUAGGAUAUGCGAAAAGAAAAAGAAAAGCAGAAGGGCCAAGAA [something completely different] | 0.0419 µM | 0.133 µM
18 | AUAAUAAUAAGAUAGGAUAUACUAAAGUAAACAUGAGGAUCACCCAUGUAAAGAAAAAAACUCAUGUAGAAGGGUCAUAAAUAAA [moonwalk 1] | 0.0463 µM | 0.0486 µM
19 | AUAAAACAUGAGGAUCACCCAUGUGAAAACGUGGGAGGAUAUACGUAGACGAAAGUCGACGUAGAAGGCCUAAAAG [Same State 1.4n.1 (Mat - Mod of Eli - )] | 0.119 µM | 0.197 µM
20 | AUUAGACAUGAGGAUCACCCAUGUAGGCAGUCAUGAGGAUAUGGACAAGGUGCUCAAGGUCCAGAAGGCAUACGCC [Maxeus] | 0.0148 µM | 0.0576 µM
21 | AGAAAGAAUAGAGAGGAUAUCUAUAAGAAAACAUGAGGAUCACCCAUGUAAAAGAAAAGAAAAUGGGAGAAGGCUCAUAAGAAAG [JL Skelter Mod 6 In the Red] | 0.186 µM | 0.0716 µM
22 | GGAAGACAUGAGGAUCACCCAUGUGGGAAUAUGGGAGGAUAUACAAAGACGAGAGUCAGAGUAGAAGGCCUAGGAG [salish99-ss1-101] | 0.0682 µM | 0.106 µM

Row | Sequence | apparent KD of MS2 coat protein [1] | apparent KD of MS2 coat protein [2]
23 | AAAAAACAUGAGGAUCACCCAUGUGCAAAAUUCGCAGGAUAUUCCUCAAUUAAAUGAAAGGAAGAAGGGUGAUAAA [Nob's Hobby 31 - Jieux - Same State 1] | 0.0797 µM | 0.429 µM
24 | GCUCCAGCUAGCAAGGAUAUGUAGGAUGCUACAUGAGGAUCACCCAUGUGCUGAAAUAAGUCCCGGCAGAAGGUGUGACUGGAGC [Quleorla] | 0.0138 µM | 0.0199 µM
25 | UACAGGAAGAGAGAGGAUAUCCAAAGGAAAACAUGAGGAUCACCCAUGUAAAAGGUAGGAAAUUGGGAGAAGGCUCAAGAGAGAG [salish99-ss2-090] | 0.021 µM | 0.032 µM
26 | AACAAUCUAUCUGAGGAUAUAUGUCGAAAGACAUGAGGAUCACCCAUGUGAAAACAUGAAAAAUCAUAGAAGGCAGAUAGAUUGA [SS2: 1138] | 0.049 µM | 0.393 µM
27 | GGGAAUAAAAGAGAGGAUAUCCAAAGGAAAACAUGAGGAUCACCCAUGUAAAAGGAAGGAAAUUGGGAGAAGGCUCAAGAUAGGG [salish99-ss2-012] | 0.0294 µM | 0.0261 µM
28 | AUGAUACAUGAGGAUCACCCAUGUCACCUCACACGAGGAUAUCUGUGCAGUACUCAGUACGGAGAAGGCGUGGAAA [Same State 1.2d (Same State of Confusion2 - KL)] | 0.0202 µM | 0.0781 µM
29 | AACCAACAUGAGGAUCACCCAUGUAGAAAUAUGGGAGGAUAUACAAACACGAAAGUGAAAGUAGAAGGCCUAAAAG [77%, Mat - Mod of Eli, 6] | 0.0225 µM | 0.125 µM
30 | AGAAAACAUGAGGAUCACCCAUGUCAAAUAAGUCAAGGAUAUGGGACUCCGCGAGAGUCGCCAGAAGGUGAGAAAA [Aatrara] | 0.0175 µM | 0.0495 µM
31 | AAAAGACAUGAGGAUCACCCAUGUCAAGACAUAGGAGGAUAUGUCGUGAAAAAAGACUUGGCAGAAGGCCUUUGUC [SS1 - 47] | 0.0143 µM | 0.0161 µM
32 | AUAAAAGAAGCGAAGGAUAUCCAAAAACCAACAUGAGGAUCACCCAUGUAAAGAAAGAAAAAAUGGGAGAAGGUCGCAAAGAAUA [73%, More Fisker Same State 2, D3, 8] | 0.0118 µM | 0.0177 µM
33 | AUAAAAGAAGCGAAGGAUAUCCAAAGAACCACAUGAGGAUCACCCAUGUAAAGAAAGAAAAAGUGGGAGAAGGUCGCAAAGAAUA [73%, More Fisker Same State 2, D3, 5] | 0.0266 µM | 0.0537 µM
34 | AGAAAUAAAAGACAGGAUAUCCAAAAGAAAACAUGAGGAUCACCCAUGUAAAAGAAAAUAAAAUGGGAGAAGGGUCAAAAUAAAG [Topaz 2] | 0.011 µM | 0.0366 µM
35 | AAGAAACAUGAGGAUCACCCAUGUAAGAUAAACACAGGAUAUGCGAAAAGAAACAAAGAAGCAGAAGGGUGAAGAA [Ex5 sub 1] | 0.017 µM | 0.0357 µM
36 | GGGAGACAUGAGGAUCACCCAUGUGAGAAGAGGCGAGGAUAUCGAAAGAAAGAAGAGAAACGAGAAGGCGCGAGAG [salish99-SS1-057] | 0.048 µM | 0.0598 µM
37 | AAGCAACAUGAGGAUCACCCAUGUAGCAGGGUCAGAGGAUAUUUGAGCUUGGUAAGGGUUAAAGAAGGUUGAUAAA [Alabeti] | 0.138 µM | 0.0555 µM
38 | AAAUUACAUGAGGAUCACCCAUGUUUAAAAAAUAUAGGAUAUGUAAAAAAAAAAAAAAAAACAGAAGGGUAAAAAA [I 'NO' this state well] | 0.0251 µM | 0.0254 µM
39 | AUGGUCAAGUGUGAGGAUAUCCAUGCUCCCACAUGAGGAUCACCCAUGUCUUAAAGGGCGUAAAGGGAGAAGGUACGAACGCCAC [Edatxein] | 0.0407 µM | 0.0783 µM
40 | AAAAAAUAAAAAAAGGAUAUCUGCAGUACGACAUGAGGAUCACCCAUGUGGUACUGCAGAUAUCAAAAGAAGGAAAAAUAAAAAA [SS2: MS2 52] | 0.0136 µM | 0.0181 µM
41 | AUAUAUAUAAGGUAGGAUAUCCAAUAAACCACAUGAGGAUCACCCAUGUAAAGAAAGAAAAAAUGGGAGAAGGACCAUAUAUAUA [77%, More Tesla, 6] | 0.0154 µM | 0.0275 µM
42 | GAGCCGCGGGCACAGGAUAUGCUCGGGCAAACAUGAGGAUCACCCAUGUGCGGCCUAAAUACGACGCAGAAGGGUGCUGGUGUGU [Orxeis] | 0.044 µM | 0.147 µM
43 | AAACCACAUGAGGAUCACCCAUGUGUAAAAAAUACAGGAUAUGGAAACACGAAAGUGAAACCAGAAGGGUGGAAAA [77%, Mat - Mod of Eli, 29] | 0.0316 µM | 0.0283 µM
